This is an account of results in the supplement of paper PMC10567573.

The data set can be described thus: protein stability index of a GFP-peptide fusion (GPS, HEK-293T) (PSI 1-6); higher = more stable. The settings on record: c terminus: a fixed tail appended.

± gives the standard deviation.
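Further: 24-mer peptide tiles fused after GFP, lentivirally expressed, FACS-sorted into six equal bins by GFP/DsRed ratio, decoded by Illumina sequencing, PSI is the read-weighted mean bin number.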

For the sequence HVGWLLVRKHPAVKEKGSTLDLSD [SCD], the protein stability index reads like this: (treatment: DMSO) 2.3 ± 0.26; (treatment: MLN4924 1 uM, 8 h) 2.48 ± 0.45.

On to IAATELEKEESRREAEKQNYLAEH [TNNI2], for which the protein stability index is 5.3 ± 0.25 (treatment: DMSO) and 5.37 ± 0.26 (treatment: MLN4924 1 uM, 8 h).

For the sequence IAELLEVFDLRMMVANILNNEAFM [RHOBTB2], the protein stability index worked out at 3.36 ± 0.2 (treatment: DMSO) and 2.98 ± 0.55 (treatment: MLN4924 1 uM, 8 h).

For the sequence ICQKTATKKRKTFDSSRQRAEGTD [ZC2HC1A], the protein stability index worked out at 4.8 ± 0.1 (treatment: DMSO) and 4.67 ± 0.53 (treatment: MLN4924 1 uM, 8 h).

On to ICSLICLLIYTVKIRRFNKAKPEP [TMEM192], for which the protein stability index (treatment: DMSO) was 2.24 ± 0.52 and the protein stability index (treatment: MLN4924 1 uM, 8 h) amounted to 2.44 ± 0.63.

Turning to IDEVRTQYEEIALKSKAEAEALYQ [KRT71], the protein stability index is, setting by setting: (treatment: DMSO) 4.77 ± 0.29; (treatment: MLN4924 1 uM, 8 h) 5.01 ± 0.26.

As to IDVEALQVAFGSLYRDDVLIKPSR [GMCL1], the protein stability index runs as follows: (treatment: DMSO) 2.37 ± 0.16; (treatment: MLN4924 1 uM, 8 h) 2.48 ± 0.37.

As to IEELEREAERKIIEENITSAAPSN [SRPK2], the protein stability index reads like this: (treatment: DMSO) 5.34 ± 0.15; (treatment: MLN4924 1 uM, 8 h) 5.17 ± 0.25.

For IEETYSKAMAKLSKLASNGTPMGT [FCHO1], the protein stability index came out at 3.4 ± 0.073 (treatment: DMSO) and 3.78 ± 0.29 (treatment: MLN4924 1 uM, 8 h).

As to IEKEYQPHVIVSTTGPNPFTTLTD [ADD1], the protein stability index is 3.74 ± 0.25 (treatment: DMSO) and 3.9 ± 0.23 (treatment: MLN4924 1 uM, 8 h).

Turning to IERLTREVEATRRALIDRMVNLHQ [DDIT3], the protein stability index is, setting by setting: (treatment: DMSO) 2.45 ± 0.18; (treatment: MLN4924 1 uM, 8 h) 2.61 ± 0.24.

As for IFMGYQNVEDEAETKKVLGLQDTI [PALM], the protein stability index by setting is: (treatment: DMSO) 3.27 ± 0.26; (treatment: MLN4924 1 uM, 8 h) 3.35 ± 0.3.

With IFNVAIPRFHMACPTFRVSIARLE [FBXO3], the protein stability index runs as follows: (treatment: DMSO) 2.19 ± 0.57; (treatment: MLN4924 1 uM, 8 h) 2.2 ± 0.47.

Consider IHGLPTEGYQALYHAVVEPMLWNP [C22orf31], for which the protein stability index (treatment: DMSO) amounted to 2.19 ± 0.11 and the protein stability index (treatment: MLN4924 1 uM, 8 h) came out at 2.13 ± 0.21.

For IIDNTNLHAWEMKPYAVMVFQTEQ [N4BP2L1], the protein stability index came out at 2.15 ± 0.25 (treatment: DMSO) and 2.09 ± 0.18 (treatment: MLN4924 1 uM, 8 h).

IILTNQSVREVTQIKCIELKSELG [P2RY14]: the protein stability index by setting is: (treatment: DMSO) 2.14 ± 0.23; (treatment: MLN4924 1 uM, 8 h) 2.27 ± 0.19.

Regarding IISAHIHPVCSLCWSRDGHKLVSA [RBBP5], the protein stability index worked out at 2.45 ± 0.37 (treatment: DMSO) and 2.14 ± 0.24 (treatment: MLN4924 1 uM, 8 h).

Turning to IIWFSFELVVRFFACPSKTDFFKN [KCNA1], the protein stability index reads like this: (treatment: DMSO) 2.88 ± 0.37; (treatment: MLN4924 1 uM, 8 h) 3.04 ± 0.36.

With IKENAQDTMRQINKKGFWSYGPVI [TOR1AIP2], the protein stability index reads like this: (treatment: DMSO) 2.51 ± 0.45; (treatment: MLN4924 1 uM, 8 h) 2.52 ± 0.26.

With IKKPESFSKQIVLRGKSIKRAPGE [NEUROD6], the protein stability index reads like this: (treatment: DMSO) 3.9 ± 0.12; (treatment: MLN4924 1 uM, 8 h) 4 ± 0.22.

Consider IKPSENHYSLLTSQPLDREATSHY [PCDHGC5], for which the protein stability index (treatment: DMSO) worked out at 3.87 ± 0.062 and the protein stability index (treatment: MLN4924 1 uM, 8 h) came to 3.93 ± 0.38.

With ILENRPPGSLLCTVAASDPDTGDN [PCDHGC5], the protein stability index is, setting by setting: (treatment: DMSO) 4.99 ± 0.12; (treatment: MLN4924 1 uM, 8 h) 5.06 ± 0.13.

For ILLQDHIRDLDVVVVSVAGAFRKG [ATL3], the protein stability index runs as follows: (treatment: DMSO) 2.94 ± 0.34; (treatment: MLN4924 1 uM, 8 h) 2.57 ± 0.68.

ILRSQLVTLLVRGVCYSESQSSAS [CLCN6]: the protein stability index is, setting by setting: (treatment: DMSO) 2.88 ± 0.38; (treatment: MLN4924 1 uM, 8 h) 2.95 ± 0.39.

Regarding ILSLEGGYNLRALAEGVSASLHTL [HDAC6], the protein stability index runs as follows: (treatment: DMSO) 2.15 ± 0.79; (treatment: MLN4924 1 uM, 8 h) 2.12 ± 0.39.

Turning to ILTERVSLPFKPFAIILPILLNIR [MIA2], the protein stability index worked out at 2.25 ± 0.55 (treatment: DMSO) and 3.79 ± 0.64 (treatment: MLN4924 1 uM, 8 h).

With IPSEEWPNPPTLQEAGLSHTEVLF [FAF2], the protein stability index runs as follows: (treatment: DMSO) 3.8 ± 0.23; (treatment: MLN4924 1 uM, 8 h) 3.81 ± 0.21.

Take IQELELQAQIHGLPVPPTPGLLSL [TFE3]: the protein stability index reads like this: (treatment: DMSO) 2.62 ± 0.22; (treatment: MLN4924 1 uM, 8 h) 2.56 ± 0.28.

IQQTTRYFSTPQTMDLFLNYSMNM [NANOGP8]: the protein stability index (treatment: DMSO) was found to be 2.7 ± 0.48 and the protein stability index (treatment: MLN4924 1 uM, 8 h) worked out at 2.58 ± 0.58.

IRERATIEETYSKAMAKLSKLASN [FCHO1] returned a protein stability index (treatment: DMSO) of 3.02 ± 0.19 and a protein stability index (treatment: MLN4924 1 uM, 8 h) of 2.91 ± 0.3.

With IRKLVAEKLNIPWNHIRLQRTAKG [AASDHPPT], the protein stability index by setting is: (treatment: DMSO) 2.31 ± 0.27; (treatment: MLN4924 1 uM, 8 h) 2.44 ± 0.33.

Regarding IRSMDPSALASDRFNLILADTNSD [DCAF4], the protein stability index by setting is: (treatment: DMSO) 4 ± 0.14; (treatment: MLN4924 1 uM, 8 h) 3.85 ± 0.11.

IRVWFQNKRCKDKKKSILMKQLQQ [ISL2]: the protein stability index was 2.08 ± 0.26 (treatment: DMSO) and 2.17 ± 0.23 (treatment: MLN4924 1 uM, 8 h).

Consider ISDALIRRVHLTEDQWGKGTLTPR [TRIM9], for which the protein stability index (treatment: DMSO) was 2.92 ± 0.14 and the protein stability index (treatment: MLN4924 1 uM, 8 h) was determined as 3.11 ± 0.41.

For ISDNSISWSAGLHNRYTENSLRGV [FUT8], the protein stability index came out at 2.87 ± 0.29 (treatment: DMSO) and 2.87 ± 0.15 (treatment: MLN4924 1 uM, 8 h).

In the case of ISHRSTVASCMHRQETVDCLKKFN [CAMK2A], the protein stability index by setting is: (treatment: DMSO) 3.23 ± 0.077; (treatment: MLN4924 1 uM, 8 h) 3.14 ± 0.11.
